The target in one test is T1, human OT-R (Homo sapiens, UniProt P30559).
T1 construct: expressed in transfected cells; host or cells: HEK293, stably transfected
T1 sequence (P30559 1-389): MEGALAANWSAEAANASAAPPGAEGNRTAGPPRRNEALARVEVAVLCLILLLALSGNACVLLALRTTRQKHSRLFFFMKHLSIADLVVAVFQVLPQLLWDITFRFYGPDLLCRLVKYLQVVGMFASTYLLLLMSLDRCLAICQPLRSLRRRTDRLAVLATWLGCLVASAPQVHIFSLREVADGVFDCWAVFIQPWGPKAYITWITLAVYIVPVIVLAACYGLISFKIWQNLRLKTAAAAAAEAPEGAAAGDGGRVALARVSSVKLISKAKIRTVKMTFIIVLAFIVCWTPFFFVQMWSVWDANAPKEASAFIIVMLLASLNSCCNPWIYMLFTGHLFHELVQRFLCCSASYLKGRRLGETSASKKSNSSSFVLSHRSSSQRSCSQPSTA
Description: In vitro oxytocin receptor activation assay (intracellular Ca2+ mobilization, Fluo-4). In kind it is cell-based. The following applies: HEK293 cells expressing human OT-R; ATP 10^-4 M as positive control; IgG applied without OT.

Test [1] deals with human oxytocin receptor, stably transfected in HEK293 cells (human) (UniProt P30559).
The target in test [2] is green-fluorescence protein (GFP)-labeled human OT-R in HEK293 cells (human) (UniProt P30559).

Chain of oxytocin (P01178 whole entry, looked up): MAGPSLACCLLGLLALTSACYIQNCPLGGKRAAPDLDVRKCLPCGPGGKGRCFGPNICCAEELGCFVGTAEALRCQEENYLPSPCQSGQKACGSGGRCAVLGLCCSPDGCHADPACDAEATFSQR

On to `Nc1ncnc2c1ncn2[C@@H]1O[C@H](COP(=O)(O)OP(=O)(O)OP(=O)(O)O)[C@@H](O)[C@H]1O` [ATP, adenosine triphosphate], for which the “intracellular Ca2+ mobilization (result in words)” value at human OT-R is recorded as “mild increase”.

Take “oxytocin (from UniProt P01178 20-28) (peptide)”: in test [1], the EC50 of Ca2+ release in OT-R expressing cells, OT dose-response with OT preincubated with plasma IgG of aggressors (OT/IgG IC, fixed IgG 840 nM) stood at 6.1 nM; the EC50 of Ca2+ release in OT-R expressing cells, OT dose-response with OT preincubated with plasma IgG of controls (OT/IgG IC, fixed IgG 840 nM) was determined as 3.1 nM; the intracellular Ca2+ mobilization in HEK293 cells stably transfected with human OT-R, OT alone at 10^-7 M (fold over basal levels) is 3.5. In test [2], the half-time internalization rate of GFP-labeled OT-R (membrane/cytoplasmic fluorescence, exponential decay model), OT alone is 16.7 min; the half-time internalization rate of GFP-labeled OT-R (membrane/cytoplasmic fluorescence, exponential decay model), OT in immune complex with plasma IgG of aggressors amounted to 23.3 min; the half-time internalization rate of GFP-labeled OT-R (membrane/cytoplasmic fluorescence, exponential decay model), OT in immune complex with plasma IgG of controls was 6.4 min.

Source of the values: paper PMC10587035 (Discover Mental Health, 2023).
